Data: patent US20090325262A1, “Immobilization of biological molecules onto surfaces coated with monolayers” (SURFACE LOGIX, INC., priority 2001, published 2009)
One block for each substance: values may come before it.

Columns and labels:
[1] = tested on: CCCC(=O)Oc1ccc([N+](=O)[O-])cc1; test: purified protein, by the assay type; details: other: substrate of recombinant cutinase; release of PNP followed by absorbance
Method: The cutinase concentration was 1 M. The release of PNP was followed using absorbance spectroscopy.
Spectrophotometric measurement was performed at room temperature using BECKMAN DU-640 spectrophotometer (BECKMAN COULTER, INC., Fullerton, Calif.). Esterase activity of purified recombinant cutinase was measured by monitoring p-nitrophenol butyrate (PNB) hydrolysis rates at 410 nm (=8,800 M-1 cm-1) in buffer A.

[2] = biological target: biotin-NH-Arg-Asp-Cys-CONH2; test: SPR, fibrinogen (0.5 mg/mL) flowed over 2% maleimide SAM treated with the peptide; FIG. 4
[3] = biological target: biotin-NH-Arg-Asp-Cys-CONH2; test: SPR (Biacore 3000), streptavidin flowed over 2% maleimide SAM treated with the peptide (1.2 mM, 12 min); FIG. 3 sensorgram A

Substance: cutinase (Fusarium vanettenii)
Km [1]: 1000 µM

SPR response (RU) [2]: 60 RU
Substance: fibrinogen

SPR response (RU) [3]: 2280 RU
Substance: streptavidin (from UniProt P22629 37-163)
